Experiment: soluble on expression in E. coli; label from the status in PepcDB or PDB records

Sequence | soluble on expression in E. coli
MPLTLTDRYRGSLLGLACGDALGTSVEFKPRGSFPPVTDLLGGGPFNLKAGQWTDDTSMALCLGESLLRKDGFDPADQMGRYLNWWQWGYLSATGECFDIGMTVRQALADYQEHGQPLAGSSDPQTAGNGSLMRLAPVVLFHYPDLAQVREFAGASSRTTHGAAEAIECCQLLAGLIAKALDGASKQQLQRLDAQGFRESKVAALAQGNYLDKTRDQIRGNGYCVDSLEAALWCFQHSDSYAEAVLAAANLGDDADTTAAIVGQLAGAFYGAQGIPPHWLAKLHMGEEIQAMADDLLAAARRRAPARPLHGSCLCKAVQYRVDRLDMPIGHCHCQTCRKAHAAAFASTAGVMREHFQWTQGQERLSTYESSPGKLRHFCSVCGSHLLAERPGQPHVILRVATLDDDPGQTPQVHIWTSHDVPWLADEALQRWPEWQPSRGLEHHHHHH | not soluble
MPRLILASTSPWRRALLEKLTIPFECAAPDVDETPMPGEAPRQLVLRLAQAKAQSLAARFPNHLIIGSDQICVLDGEITGKPLTEEKARQQLAKASGNIVTFYTGLALYNSASGHLQTEVEPFDVHFRHLSEAEIDDYVRKEHPLHCAGSFKSEGLGIALFERLEGRDPNTLIGLPLIALCQMLRREGFNPLQQ | not soluble
MTGSQFPREELFAPGHRGCAGCGAAIVARLALKAAGKNTIVANATGCLEVMTTPYPETAWRVPWIHVAFENAAAVASGIEGAVVALKRKKGKYGEEKVNVIAFGGDGGTADIGFQALSGAMERGHDMVYIMYDNEAYMNTGVQRSGSTPFMASTTTSPAGSHIRGENRPKKDMPMIMAAHGIPYIATASISYPEDFMNKVKKACEVNGPAFIQVLQPCTTGWGYPAENTVEMGRLAVETGVWPLFEIENGEFKLNYKPLKRKPIEEYLKVQKRYRHLKPEDISVIQETIDMKCDEYGL | not soluble
MARPKTQSERMIILERIIGLVKEQGRITTNDVVAIFGVHRTTAEKYLRIALERGGFIRHGRCGIFRDQRAVIDYDLRRYSSSQVTGFSALPVLEKSPVMQVYGASKMSINKGGAQ | not soluble
MVEVHACSPGCRHHLGGAGWGDAPLVRLGYNKEARAKKFPYLKALLERPLVFDGAMGTELQKRDLTPEDYGGEAYFGCPEVLNRTRPEVVREIHLAYLEAGAEVIETNTFGALRHVLAEYGLEEAAEELAFLGARIAREAADPHGAFVAGALGPGTKLVSLGQISWDALYRAYKEAARGLLKGGVDLILLETAQDILQVRCAVLAVREAMAEVGREVPLQVQVTFEATGTMLVGTDEQAALAALESLPVDVVGMNCATGPDLMDSKVRYFAEHSTRFVSCLPNAGLPRNEGGRVVYDLTPEELAKWHLKFVAEYGVNAVGGCCGTGPEHIRKVAEAVKGLAPKPRPESFPPQVASLYQAVSLKQEASLFLVGERLNATGSKRFREMLFARDLEGILALAREQVEEGAHALDLSVAWTGRDELEDLRWLLPHLATALTVPVMVDSTSPEAMELALKYLPGRVLLNSANLEDGLERFDRVASLAKAHGAALVVLAIDEKGMAKTREEKVRVALRMYERLTEHHGLRPEDLLFDLLTFPITQGDEESRPLAKETLLAMEELRERLPGVGFVLGVSNVSFGLKPRARRVLNSVFLDEARKRGLTAAIVDAGKILPISQIPEEAYALALDLIYDRRKEGFDPLLAFMAYFEAHKEDPGKREDAFLALPLLERLKRRVVEGRKQGLEADLEEALKAGHKPLDLINGPLLAGMKEVGDLFGAGKMQLPFVLQAAEVMKRAVAYLEPHMEKKGEGKGTLVLATVKGDVHDIGKNLVDIILSNNGYRVVNLGIKVPIEEILKAVEAHKPHAVGMSGLLVKSTLVMKENLEYMRDRGYTLPVILGGAALTRSYVEELRAIYPNVYYAEDAFEGLRLMEELTGHAPPELTRKAPARPKREAPKVAPRARPVGEAPAVPRPPFFGVRVEEGLDLATIAHYVNKLALYRGQWGYSRKGLSREAWQALVEREAEPVFQRLLKEAMAEGWLEPKVLYGFFPVAREGEELLVFSPETGEVLERFRFPRQKGGGLSLVDYFRPRFAAPLGDEADWMPKEAFRAGARDVLGVQLVTMGEAPSRKAQALFASGAYQDYLFVHGFSVEMTEALAEYWHKRMRQMWGIAHQDATEIQKLFQQGYQGARYSFGYPACPDLADQAKLDRLMGFHRVGVRLTENFQLEPEHATSALVVHHPEARYFSVD | soluble
MSLGQLLSHPIEEKELDYKSYTNLTYCIGSMQGYRMTMEDAHDVKINEHENLAVFGIFDGHGGKNCSQYLAEHLPKLVFTKLNKIASAVYLKQVKDIDLKDVFDILKNSFFKIDKDLSHHANMVNCGSTATVVTIIANYIVVANTGDSRCIVSRNGHAKPLSFDHKPSNMGERVRIENSNGYILNNRINEVLALSRAFGDFKFKLPYLSSSRNKYIKENQKLLGDKLITLPPELFQVTVEPDIMLYDMQKLDSPEFLVIACDGVWDCFKNGQLVKLIRDKLSLGWRLNKIVEYILNDSLTMANNYTGIGFDNMTLIIVAIHKEGHHHHHH | soluble
MDLYEKIKLLASEKKMSIRQLEETLGFGNGVINRWRKNTPGSDKLKKVADYFNISVDYLLGRTDNPNSNNLEEDEITTFFRVNTEDLTESEKDQLREELKEYLEFMKSRLKNK | soluble
MTNEEPLPKKVRLSETDFKVMARDELILRWKQYEAYVQALEGKYTDLNSNDVTGLRESEEKLKQQQQESARRENILVMRLATKEQEMQECTTQIQYLKQVQQPSVAQLRSTMVDPAINLFFLKMKGELEQTKDKLEQAQNELSAWKFTPDR | soluble
MSLCTPLTSYSGFQAIEAKPAEMKVGEDSKSTLMEKLGSPSAVSTFDNNTWYYISQTTDRVAFYMPRVIKRDVVAIKFNPADEKVASVDTYTLQDGKVIAYNGRETPTRGREMTILEQLLGNVGRGGMLPQDDTAPGQRPGDREGHHHHHH | soluble
KGTYLSEYANFAAALTEGKILLLADLRGFGETTDPAFYTDAKYWNREYRNAMVSMHIGRPIMGQRVVDILTLLDFCSEHEFLKGHPVKVFANGIYGPVAIHAAYLDERINSVEIKHSVKTWKEYIERPMQWDMYSNVLYGALKYYDLPDLIRLSNCPIRFAD | not soluble
EFVDPSWNYFDNRVHDIAIMEGQSQTKKWQKWLSQIEKRFGVDRNILLAIWSMESNYGKVLANKDVMRDTIRSLATLAYADQKRAKYAQAQLIAAMTILQNGEITRAQLTGSWAGAMGHTQFIPSSYLAYAIDMDGDGRRDIWTSVPDALATAANLLYMNGWQSKLPWGVEVKLPQGKNLPEDWHSFEQWAKLGVKQANGKHLPSLSERAILKYPDGPEGPIFLVTKNFFVLKRYNNADRYAFAVALLANRIAGHSGL | not soluble
GMDQESNATSQDILKQHAAHYESDMGGLPEALVQLAEYAPETFDAYSRMRTTMLKSEADGAKLPLKYKHLILVVLDAIRDEPIGIVNHTRAAMNAGLSVDELIEGILLGIIVYGMPAWGKTGRKAVTFAVEFEKELAGKRT | soluble
MSLNVDVLLKNVWLYQTVTQTFVQRNVAIKNDKFYYIYEEENVNLQPQKTINAENQWMIPGLIDAHMHIESSMTTPTIFSKAVVRYGVTTVIADAHEMANVFGLEGLKAFMAAETELDIFHAIPSSVPSTTPELETTGGIIGLAEVAELLKEPKVICLGEAMNFKGISYEPDSLIRQIIDLCQKQRPTMPLEGHCPKIEDQELADFLYSGITSDHTHQFPKTLKEKIEAGVFIQFQNKSITPENIQVIVDNDFYNYASIITDDVMADDLLKGHLNENVKKAVHAGLPIEKAIYMATYTPAKRMGLHDRGEIAPGKKADFLLLNDLESFDINTVYKSGKVVFEKGEPFHYPEKIEEFPATYQQTIQCKKLTEEDLLLKVATTKETVRCNVIQKQEIGTFTERITKEIPVENGLLQWQKANCALLIVMERYGKNGNISFSLMDQPLSEKGAIATTWAHDHHNLMVMGNTIEDILLAQNELLAMQGGYLVASDQQVMATCPLPIGGILSQAPIEQLGASLQKVRQAMQALGYQNMNEIMSFSTLSLPVSPAIKVTDFGMMDTKSQRFYPLVFPEDGVLLHENTHEGHHHHHH | soluble
MRGSHHHHHHTDPALRAIVISRHVAIPDGELEITAIRAQGAGGQHVNKTSTAIHLRFDIRASSLPEYYKERLLAASHHLISSDGVIVIKAQEYRSQELNREAALARLVAMIKELTTEKKARRPTRPTRASKERRLASKAQKSSVKAMRGKVRSGREGLCGR | soluble
MNIIDELEWRGAVNQQTDEEGLRKLVEEKKISLYCGVDPTGDSMHIGHLIPFMMMKRFQLAGHHPVILIGGATGTIGDPSGRQSERQLQTLEVVQHNVDALTAQMKKLFDFGGNSEVKMVNNYDWTHEINIIEFLRDYGKNFSINSMLAKDIVASRLDTGISFTEFTYQILQAMDFHHLYTKEDVQLQIGGSDQWGNITSGLDLIRKLEGHEAKVFGLTIPLLLKSDGTKFGKSAGGAVWLDPEKTTPFEFYQFWVNTDDRDVVKYLKYFTFLTKERIDELAVKVETEPHKREAQKVLAEEMTKFVHGEEALLQAVKITAALFSGDIKSLTADEIEQGFKEMPTFQSSKETKNIVEWLVDLGIEPSRRQAREDINNGAISMNGEKVTDVGTDVTVENSFDGRFIIIRKGKKNYSLVKLG | soluble
MVSEPKVPKAPRPPKQPNVQDFQFFPPRLFELLEKEILYYRKTIGYKVPRNPDLPNSAQVQKEEQLKIDEAEPLNDEELEEKEKLLTQGFTNWNKRDFNQFIKANEKWGRDDIENIAREVEGKTPEEVIEYSAVFWERCNELQDIEKTMAQIERGEARIQRRISILEHHHHHH | soluble
SLTTTDADWKPVADALGRSGKLGDNNTAYRINLPRNDLHITSYGVDIKPGLSLGGYAAFARYDNNETLLMGDLVITEEELPKVTDALQAHGIAQTALHKHLLQQDPPVWWTHIHGMGDAARLAQGLKAALDATTIGPPTPPPARQPPVDIDVAGVDQALGRKGTQDGGLMKYSIPRKDTIIEDGHVLPAVSLNLTTVINFQPVGRGRAAINGDFILIAPEVQEVIRAMRAGNITIVELHNHGLTEEPRLFYMHYWAVDDAVTLARALRPAMDATNLQS | not soluble
MSLKMRVYYEDTDAGGVVYHSNYLKFCERARSEIFFNKKVDIFDASKGHFLLAKANCNFLKPAKLGDMIEIKTKILEVKNASVEILQEIYKDEILLFKMELTLAFIKNEKPARMDMQLKKLFEELFEGGSHHHHHH | soluble
YSVTVKWGKEKFEGVELNTDEPPMVFKAQLFALTGVQPARQKVMVKGGTLKDDDWGNIKMKNGMTVLMMGSADALPEEPSAKT | soluble
MCMVHTYLGETINFHITYKKKKSVRLFVDSYGNVEVQAPKGTPVEYLIQLLEEKWDWIQTTRKEMAERARGPQEKDYDQGEGFLYLGNTYPIQISQDANITQDNAVFEKDRLHIYVKELKDEKIQQALKRFYYKQKSLVEKSIKAHQSNFKTKPRSIRITDSSRTWGTCDSNLQLTFNWKLAMAPQRVIDYVVVHEMCHMVHLNHDRSFWRLVGKIMPDYKEMENWLALSSWKMTVMAGDPLEHHHHHH | soluble
MMDCRLGCGACCIAPSISSPIPGMPNGKPAGVRCVQLNEDNLCQLFGRPERPKVCHDFKACPVVCGKTNQQALANLTELERLTLEHHHHHH | not soluble
MDEDIICVGCGAILQSDDPKKAGYLPKSALDKAKREENTDVYCQRCFRLRHYNEIMPVDLNNDDFLALLNSLSEKKALVVNVVDLFDFSNSLLSSLKRFVGNNDFILVGNKFDLFPKNSKQSKIKDWMRQEANRMGLYPKDIFLVSAKKKVNLESLISYINDHSQDKDVYFVGTTNVGKSTLINAIIDMMGDIQDLITTSRFPGTTLDQIEIPLENGHFLIDTPGIMTDNQLATHLNAKDLELVSPKKPLKPATYQLLPGNTLFLAGLGRIDFLKGESTSFTVYVARDMYVHRTKTANADAFYEKHKGELLTPPSADDQMAPLKGKEFRTDYKSDLLFGGIGFVTVPKGCVVKTYTPDGIGLGIRRALILEHHHHHH | soluble
